Laboratory results taken from article PMC6057921.
Blank lines part the entries; values can stand above or below the substance they belong to.

How the values were obtained:
[1] = biological target: Arp2/3 complex (untagged, yeast) (yeast (RedStar yeast cakes)) (UniProt P32381); assay: SEC; Superdex 200 Increase 10/300 GL, 4 °C; 0.7 µM Arp2/3 complex and 7 µM Abp1 incubated >1 h on ice; 10 mM HEPES pH 7.0, 50 mM KCl, 1 mM EGTA, 2 mM MgCl2, 0.5 mM DTT, 0.1 mM ATP; bands of the peak fraction quantified on stain-free gels against standards
[2] = biological target: SNAP-tagged S. cerevisiae Arp2/3 complex (dye-labelled) (S. cerevisiae) (UniProt P32381); assay: single-molecule TIRF colocalisation; 649-biotin-SNAP-Arp2/3 complex anchored by streptavidin; 20 nM Abp1-SNAP-549 flowed in; no actin; 0.25 s intervals for 120 s
[3] = biological target: SNAP-tagged S. cerevisiae Arp2/3 complex (dye-labelled) (S. cerevisiae) (UniProt P32381); assay: single-molecule TIRF colocalisation; 649-biotin-SNAP-Arp2/3 complex anchored by streptavidin; 20 nM Abp1-SNAP-549 with 200 nM unlabeled Abp1 (220 nM total); 0.25 s intervals for 120 s; double exponential fit
[4] = biological target: Arp2/3 complex (untagged, yeast) (yeast (RedStar yeast cakes)) (UniProt P32381); assay: negative-stain single-particle electron microscopy; Abp1-SNAP and Arp2/3 complex at 1:1 molar ratio (100 nM each), 30 min at room temperature, uranyl formate stain; random conical tilt 3D reconstructions at 21 Å
[5] = biological target: Rabbit skeletal muscle actin (filaments) (rabbit) (UniProt P68135); assay: single-molecule TIRF colocalisation; 10 nM JF646-SNAP-Arp2/3 on tethered, preformed unbranched OG-labeled actin filaments, no actin monomers, no Abp1; recorded at 0.15 s intervals; TIRF buffer pH 7.4; single exponential fit
[6] = biological target: Rabbit skeletal muscle actin (filaments) (rabbit) (UniProt P68135); assay: single-molecule TIRF colocalisation; as a1 with 0.5 µM Abp1 present; double exponential fit
[7] = biological target: Abp1-SNAP (S. cerevisiae Abp1 with C-terminal SNAP-tag, dye-labelled) (S. cerevisiae) (UniProt P15891); assay: single-molecule TIRF colocalisation; Abp1-SNAP-biotin-549 anchored by streptavidin; JF646-SNAP-Arp2/3 flowed in (10 nM in the results, 15 nM in the methods); no actin; 0.25 s intervals for 60 s

stoichiometry N (Abp1 per Arp2/3 complex) [1]: 2
Substance: Abp1 (S. cerevisiae, untagged after GST cleavage) (from UniProt P15891 1-592) (natural protein)

average lifetime [2]: 0.36 s
lifetime of long-lived interactions at 220 nM total Abp1 [3]: 36 s
percent of particles in the Class 1 Abp1-bound reconstruction [4]: 30%
Substance: Abp1-SNAP (S. cerevisiae Abp1 with C-terminal SNAP-tag, dye-labelled) (from UniProt P15891 1-592) (natural protein)

average lifetime on filament sides [5]: 0.37 s
lifetime of the longer-lived binding events with 0.5 µM Abp1 [6]: 2 s
average dwell time [7]: 0.37 s
Substance: SNAP-tagged S. cerevisiae Arp2/3 complex (dye-labelled) (from UniProt P32381 1-391; P47117 1-449; P38328 1-384)
